Data published in patent publication US20240368668A1, “SUBSTRATES AND BIOMARKERS OF ADAMTS7” (The Broad Institute, Inc., priority 2021, published 2024).
Square brackets hold non-standard residues; d marks the D form. Ends that are not written are not given here. pGlu = O=C1CC[C@@H](C(=O)O)N1

Target: T1, mouse ADAMTS7 (Mus musculus, UniProt Q68SA9, E373Q)
T1 construct: Full-length mouse Adamts7 1-1857 (Uniprot Q68SA9, WT or E373Q catalytic mutant); expressed in transfected cells; host or cells: Human Coronary Artery Smooth Muscle Cells (HCA-SMC, Lonza), adenovirus 50 MOI
T1 sequence (Q68SA9 221-1657 E373Q): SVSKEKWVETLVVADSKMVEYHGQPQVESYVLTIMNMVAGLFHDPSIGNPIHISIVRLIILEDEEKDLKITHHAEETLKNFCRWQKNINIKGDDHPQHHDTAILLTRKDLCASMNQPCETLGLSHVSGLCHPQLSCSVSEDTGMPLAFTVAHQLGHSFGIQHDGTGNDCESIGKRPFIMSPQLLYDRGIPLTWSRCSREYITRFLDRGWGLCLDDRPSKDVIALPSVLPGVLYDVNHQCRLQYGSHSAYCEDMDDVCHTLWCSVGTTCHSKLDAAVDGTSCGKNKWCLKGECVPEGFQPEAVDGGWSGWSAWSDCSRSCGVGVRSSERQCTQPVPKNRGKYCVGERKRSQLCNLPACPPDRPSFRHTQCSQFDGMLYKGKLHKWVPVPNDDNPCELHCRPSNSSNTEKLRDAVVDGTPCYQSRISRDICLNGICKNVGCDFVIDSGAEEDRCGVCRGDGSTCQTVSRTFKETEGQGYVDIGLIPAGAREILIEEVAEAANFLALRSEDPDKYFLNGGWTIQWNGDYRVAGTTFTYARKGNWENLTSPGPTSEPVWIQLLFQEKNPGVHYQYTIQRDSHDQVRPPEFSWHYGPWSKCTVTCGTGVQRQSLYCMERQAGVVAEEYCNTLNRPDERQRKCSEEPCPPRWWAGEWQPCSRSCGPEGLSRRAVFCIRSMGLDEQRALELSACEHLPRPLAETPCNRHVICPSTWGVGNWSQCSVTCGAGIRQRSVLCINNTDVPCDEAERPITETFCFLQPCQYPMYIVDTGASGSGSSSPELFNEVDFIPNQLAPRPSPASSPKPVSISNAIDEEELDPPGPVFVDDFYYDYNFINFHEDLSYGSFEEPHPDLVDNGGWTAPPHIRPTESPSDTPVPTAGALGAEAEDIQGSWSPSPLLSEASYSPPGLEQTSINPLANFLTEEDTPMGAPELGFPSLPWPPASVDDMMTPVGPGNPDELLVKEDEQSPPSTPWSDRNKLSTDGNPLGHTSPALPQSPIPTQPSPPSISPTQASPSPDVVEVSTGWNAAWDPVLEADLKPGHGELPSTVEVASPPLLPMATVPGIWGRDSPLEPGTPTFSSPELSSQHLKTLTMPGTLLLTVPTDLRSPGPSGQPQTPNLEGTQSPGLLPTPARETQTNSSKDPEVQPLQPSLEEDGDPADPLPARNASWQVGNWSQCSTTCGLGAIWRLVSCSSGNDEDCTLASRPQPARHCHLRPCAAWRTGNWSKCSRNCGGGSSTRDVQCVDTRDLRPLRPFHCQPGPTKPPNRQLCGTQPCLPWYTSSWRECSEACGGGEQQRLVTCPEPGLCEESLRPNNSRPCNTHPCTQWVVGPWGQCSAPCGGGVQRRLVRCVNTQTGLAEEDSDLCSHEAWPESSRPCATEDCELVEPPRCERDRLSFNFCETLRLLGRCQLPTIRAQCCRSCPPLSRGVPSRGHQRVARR
Experiment: TMT10 TAILS N-terminomics, SMC1 experiment (Ad-mADAMTS7 WT vs EQ vs Luc, technical replicates, trypsin digest)
Format: cell-based
Details: TAILS neo-N-terminal peptide abundance; log fold change, Ad-mADAMTS7 EQ over Luc
Source text: ADAMTS7 Expression, Cell Culture and Preparation of the Secreted Proteins—Full-length mouse Adamts7 1-1857 (Uniprot Q68SA9, WT or E373Q catalytic mutant) with a carboxyl terminal 3xFLAG tag was used to generate custom adenoviruses as previously described. Adeno-CMV-Luciferase (Ad-Luc) from Vector Biolabs was used as a negative control. Human Coronary Artery Smooth Muscle Cells (HCA-SMC) were obtained from Lonza and expanded in Lonza SmGM-2 media in 15 cm tissue culture plates. Twenty-four hours before media collection, near confluent plates were transduced with 50 MOI adenovirus and switched to Lonza Basal SM media with volumes of 20 ml per 15 cm plate. Expression of the Flag tagged ADAMTS7 was confirmed from the media using western blot and detected using the anti-Flag M2-HRP antibody (Sigma, A8592). Collected media was processed by adding protease inhibitors (1 mM EDTA and 1 mM PMSF) and clarified by 500 g×5 min spin at 4 C to pellet cell debris. Cell media supernatants were then passed through a 0.22 um filter and kept chilled. Processed media was then concentrated 50-100× using 3 kDa Centricon Plus-70 filter unit, spun at 3,500 g×60 min at 4 C. Approximately 10% of the processed, concentrated media was set aside for total secretome proteolytic analysis. The remaining 90% of the processed, concentrated media was buffer exchanged into 50 mM HEPES pH 8.0, 150 mM NaCl (2×50 ml) using the 3 kDa Centricon Plus-70 filter unit and concentrated to >2 mg/ml to serve as input for the TAILS experiment. Secretome and TAILS input samples were stored at −80° C.
For the first experiment, referred to as SMC1, 120 ml of media from 6×15 cm dishes was pooled from each condition (Luc, WT, EQ) and processed to produce three separate inputs for the TAILS experiment. Luc, WT and EQ inputs from the SMC1 experiment were each divided into triplicate 400 ug samples to generate technical replicate TAILS data. For the second experiment, referred to as SMC2, media was processed separately in triplicate for each condition (Luc1, Luc2, Luc3, WT1, WT2, WT3, EQ1, EQ2, EQ3) using 60 ml of media from 3×15 cm dishes for each process replicate. Inputs from the SMC2 experiment used process replicates of 300 ug each to generate TAILS data. The third experiment used input from cultured Human umbilical vein endothelial cells (HUVEC) from Lifeline Cell Technology grown in VascuLife Media and transduced in Lifeline Basal EC (+bFGF2 10 ng/ml). The HUVEC experiment used the same strategy as the SMC2 experiment, with 40 ml of media from 2×15 cm dishes for each process replicate and used 200 ug each to generate TAILS data. Inputs for process replicate experiments were restricted to the lowest concentration from the 9 parallel samples for SMC2 or HUVEC.
TMT10 isotopic labeling and negative selection of non-labeled peptides-Sample preparation was performed based on the TAILS protocol from the Overall lab with some modifications. From a single experiment, nine parallel protein samples in 50 mM HEPES pH 8.0, 150 mM NaCl were separately denatured with guanidinium chloride (Sigma, G4505) to reach a final concentration of 2.5M guanidinium chloride and 250 mM HEPES and incubated at 65° C. for 15 min. Reduction was achieved through addition of tris(2-carboxylethyl) phosphine (TCEP) at a final concentration of […] and incubated at 65° C. for 45 min. Alkylation reaction was performed with addition of iodoacetamide (IAA, Sigma, A3221) to a final concentration of 10 mM IAA for 15 min at room temperature in the dark. Following denaturation, reduction and alkylation steps, ten percent of each of the nine parallel protein samples was removed and combined to serve as a pooled reference. Isobaric tags were added to free amine groups using the TMT10plex Isobaric Mass Tagging Kit (ThermoFisher, 90113) with TMT channels randomly assigned to the nine samples and TMT 131 assigned to the pooled reference. […]

logFC.mEQ.over.Luc	Substance
−0.08	ACTB_21 (FAGDDAPR; listed as Homo sapiens)
−0.12	ACTB_105 (LTEAPLNPKANR; listed as Homo sapiens)
−0.10	ADAM9_69 (VIQAEGKEHIIHLER; listed as Homo sapiens)
−0.18	AEBP1_37 (FLEGFLSELEPEPR; listed as Homo sapiens)
0.27	APLP2_579 (ISETPVDVR; listed as Homo sapiens)
0.14	CCDC80_66 (LEEPNLQPLQR; listed as Homo sapiens)
0.28	ECM1_134 (FGDQSHPEPESWNAAQHCQQDR; listed as Homo sapiens)
−0.59	EFEMP1_124 (AVAGPEMQTGR; listed as Homo sapiens)
−0.33	EFEMP1_125 (VAGPEMQTGR; listed as Homo sapiens)
−0.09	EFHD2_67 (QGIGEPQSPSR; listed as Homo sapiens)
−0.22	EHBP1L1_298 (TAPTPAPR; listed as Homo sapiens)
−0.01	FBLN2_259 (ALGPPAPVQAKAR; listed as Homo sapiens)
−0.74	FBLN2_260 (LGPPAPVQAKAR; listed as Homo sapiens)
0.21	FBN1_29 (LEAGNVKETR; listed as Homo sapiens)
−0.04	FBN1_53 (LKGPNVCGSR; listed as Homo sapiens)
0.19	FLNA_612 (SVEGPSQAKIECDDKGDGSCDVR; listed as Homo sapiens)
−0.25	FLNA_695 (FTVDAKHGGKAPLR; listed as Homo sapiens)
−0.11	FLNA_1285 (LTQTGGPHVKAR; listed as Homo sapiens)
0.39	FN1_36 (MVQPQSPVAVSQSKPGCYDNGKHYQINQQWER; listed as Homo sapiens)
−0.40	FN1_40 (QSPVAVSQSKPGCYDNGKHYQINQQWER; listed as Homo sapiens)
0.49	FN1_45 (VSQSKPGCYDNGKHYQINQQWER; listed as Homo sapiens)
0.19	FN1_47 ([code q]SKPGCYD[code n]GKHYQINQQWER; not fully specified; listed as Homo sapiens)
0.56	FN1_281 (SGSGPFTDVR; listed as Homo sapiens)
−0.15	FN1_282 (GSGPFTDVR; listed as Homo sapiens)

logFC.mEQ.over.Luc	Substance
0.49	FN1_886 (NQESTPVVIQQETTGTPR; listed as Homo sapiens)
0.00	FN1_1143 (LTPGVEYVYTIQVLR; listed as Homo sapiens)
−0.08	FN1_1656 (SSSPVTGYR; listed as Homo sapiens)
−0.11	FN1_1731 (FTDVDVDSIKIAWESPQGQVSR; listed as Homo sapiens)
−0.13	FN1_2143 (FEEHGFR; listed as Homo sapiens)
0.14	FN1_2217 (FQDTSEYIISCHPVGTDEEPLQFR; listed as Homo sapiens)
−0.43	GALNT2_31 (LAGGAGGGAGR; listed as Homo sapiens)
0.05	GSN_35 (SQAGAPQGR; listed as Homo sapiens)
−0.20	GSN_413 (HIANVER; listed as Homo sapiens)
0.51	HEG1_49 (GAGLELQLER; listed as Homo sapiens)
0.35	HLA−C_52 (VDDTQFVR; listed as Homo sapiens)
0.38	HSPG2_275 (LLPGSVR; listed as Homo sapiens)
−0.15	HSPG2_1937 (SSAGQQVAR; listed as Homo sapiens)
0.03	HSPG2_2331 (ANLAYPAGSTQPIR; listed as Homo sapiens)
0.01	HSPG2_2333 (LAYPAGSTQPIR; listed as Homo sapiens)
0.14	HSPG2_2688 (VADSGEYVCR; listed as Homo sapiens)
0.00	HSPG2_3250 (SPLPWQHR; listed as Homo sapiens)
−0.07	HSPG2_3542 (IAHVELADAGQYR; listed as Homo sapiens)
−0.26	HSPG2_3647 ([pGlu]GKVKAFAHLQVPER; listed as Homo sapiens)
0.06	HSPG2_3672 (SFLPLPTIKDAYR; listed as Homo sapiens)
−0.28	HSPG2_3813 (SSGFIGCVR; listed as Homo sapiens)
−0.37	HSPG2_4004 (SAEPLALGR; listed as Homo sapiens)
−0.02	HSPG2_4021 (LNKDGSLR; listed as Homo sapiens)
0.02	HSPG2_4075 (GCVGEVSVNGKR; listed as Homo sapiens)
